How the values were obtained:
non-reducing SDS-PAGE = target: the molecule itself; experiment: non-reducing SDS-PAGE
[1] = target: the molecule itself; experiment: non-reducing SDS-PAGE with gel densitometry
[2] = target: the molecule itself; experiment: non-reducing SDS-PAGE with immunoblot

B1: recombinant VI114-G48C (protein VI residues 34-114 with G48C) (domain or fragment)
chain: AFSWGSLWSGIKNFCSTVKNYGSKAWNSSTGQMLRDKLKEQNFQQKVVDGLASGISGVVDLANQAVQNKINSKLDPRPPVE
modifications: intermolecular disulfide bond (in the dimer fraction)
B1 was tested, and the “stoichiometry N” value (non-reducing SDS-PAGE) was 2.

B2: protein VI with the G48C mutation, in AdV VI-G48C particles (natural protein)
chain: AFSWGSLWSGIKNFCSTVKNYGSKAWNSSTGQMLRDKLKEQNFQQKVVDGLASGISGVVDLANQAVQNKINSKLDPRPPVEEPPPAVETVSPEGRGEKRPRPDREETLVTQIDEPPSYEEALKQGLPTTRPIAPMATGVLGQHTPVTLDLPPPADTQQKPVLPGPTAVVVTRPSRASLRRAASGPRSLRPVASGNWQSTLNSIVGL
modifications: intermolecular disulfide bond between protein VI molecules (in the dimer fraction)
B2 was tested, and the “ratio of monomer:dimer” value [1] was roughly 1.4 dimer per monomer and the “stoichiometry N” value [2] was 2.

From paper PMC3621912 (Virology, 2012)
